The numbers were not newly measured in patent US20200247855A1, “THERAPY AND DIAGNOSTICS” (OXFORD UNIVERSITY INNOVATION LIMITED, priority 2017, published 2020), which cites them from elsewhere.

One data set has as its system chemokines. The note with it: list of chemokines bound, from the literature [18,20-22]; cited from earlier work.
A further data set addresses T1, CCL21_HUMAN (Homo sapiens, UniProt O00585).
T1 sequence (O00585 24-134): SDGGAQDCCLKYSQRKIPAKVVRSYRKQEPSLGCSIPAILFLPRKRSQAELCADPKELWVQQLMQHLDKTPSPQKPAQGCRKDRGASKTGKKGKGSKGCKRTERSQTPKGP
Particulars: data obtained from publications [20-22,32]; read-out: Kd, CCL21_HUMAN, previously described evasins; cited from earlier work.

The target in the next data set is CCL13_HUMAN (Homo sapiens, UniProt Q99616). Particulars: data obtained from publications [20-22,32]; cited from earlier work.
CCL13_HUMAN, sequence (Q99616 17-98): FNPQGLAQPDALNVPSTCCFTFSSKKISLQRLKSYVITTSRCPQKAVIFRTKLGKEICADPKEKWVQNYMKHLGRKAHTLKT
The target in another data set is T2, CCL16_HUMAN (Homo sapiens, UniProt O15467).
T2 sequence (O15467 24-120): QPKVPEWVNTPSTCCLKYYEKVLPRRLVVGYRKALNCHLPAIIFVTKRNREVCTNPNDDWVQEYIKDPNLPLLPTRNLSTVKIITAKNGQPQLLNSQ
Particulars: read-out: Kd, CCL16_HUMAN, previously described evasins; data obtained from publications [20-22,32]; cited from earlier work.

Another data set has as its target T3, CCL22_HUMAN (Homo sapiens, UniProt O00626).
T3 sequence (O00626 25-93): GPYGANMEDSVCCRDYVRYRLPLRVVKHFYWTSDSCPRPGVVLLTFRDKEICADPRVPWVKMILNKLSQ
Particulars: read-out: Kd, CCL22_HUMAN, previously described evasins; data obtained from publications [20-22,32]; cited from earlier work.

The target in the next data set is T4, CCL25_HUMAN (Homo sapiens, UniProt O15444).
T4 sequence (O15444 24-150): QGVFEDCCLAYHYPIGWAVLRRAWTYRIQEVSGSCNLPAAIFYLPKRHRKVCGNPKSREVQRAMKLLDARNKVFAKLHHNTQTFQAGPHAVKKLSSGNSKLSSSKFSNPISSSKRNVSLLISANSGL
The note with it: read-out: Kd, CCL25_HUMAN, previously described evasins; data obtained from publications [20-22,32]; cited from earlier work.

B1: P1243_AMBAM: tick CKBP, Amblyomma americanum; AAM-02 stated identical (protein, listed as Amblyomma americanum)
chain: RNHTEDNSTEYYDYEEARCACPARHLNNTNGTVLKLLGCHYFCNGTLCTAPDGYPCYNLTAQQVRTLTTYPNTSCAVGVCMKGTCVKNGTMEQCFKTP
As to B1, the “Previously described chemokine binding” value with chemokines was “CCL11, CCL24, and CCL26, CCL2, and CCL7”.

B2: EVASIN4: previously described tick CKBP evasin 4, from Rhipicephalus sanguineus (protein, listed as Rhipicephalus sanguineus)
chain: EVPQMTSSSAPDLEEEDDYTAYAPLTCYFTNSTLGLLAPPNCSVLCNSTTTWFNETSPNNASCLLTVDFLTQDAILQENQPYNCSVGHCDNGTCAGPPRHAQCW
With B2, the equilibrium dissociation constant (Kd) is 0.01 nM with CCL21_HUMAN, 0.26 nM with CCL16_HUMAN, 0.43 nM with CCL22_HUMAN and 69.6 nM with CCL25_HUMAN. For the same molecule, the “Kd, CCL13_HUMAN, previously described evasins” value with CCL13_HUMAN is listed as “No Binding”.

One may read the Kd as the equilibrium constant for the complex coming apart.
